Consider two proteins from patent US20190160028.

The data set addresses His-tagged DENV2 NS2B protein (His-NS2B) (aa 48-95).

B1: His-tagged maltose-binding protein (MBP) fused to DENV2 NS3 protein (His-MBP-NS3) (protein)
chain: AGVLWDVPSPPPMGKAELEDGAYRIKQKGILGYSQIGAGVYKEGTFHTMWHVTRGAVLMHKGKRIEPSWADVKKDLISYGGGWKLEGEWKEGEEVQVLALEPGKNPRAVQTKPGLFKTNAGTIGAVSLDFSPGTSGSPIIDKKGKVVGLYGNGVVTRSGAYVSAIAQTEKSIEDNPEIE
In the case of B1, the “transactivation (protease activity, Abz substrate at 200 µM; NS3 150 nM, NS2B 1 µM)” value was “Both soluble MBP-NS3 fusion protein and refolded NS3 can be trans-activated by soluble His-NS2B, and have similar activities”.

B2: refolded His-NS3 (protein)
chain: AGVLWDVPSPPPMGKAELEDGAYRIKQKGILGYSQIGAGVYKEGTFHTMWHVTRGAVLMHKGKRIEPSWADVKKDLISYGGGWKLEGEWKEGEEVQVLALEPGKNPRAVQTKPGLFKTNAGTIGAVSLDFSPGTSGSPIIDKKGKVVGLYGNGVVTRSGAYVSAIAQTEKSIEDNPEIE
On to B2, for which the “transactivation (protease activity, Abz substrate at 200 µM; NS3 150 nM, NS2B 1 µM)” value was “Both soluble MBP-NS3 fusion protein and refolded NS3 can be trans-activated by soluble His-NS2B, and have similar activities”.
